The test system of the data set is Ras.

In the case of “mouse neurofibromin expressed from full-length mNf1 cDNA with exon 28 deleted”, the “Ras assays (GTP-Ras levels, p-ERK/ERK ratio, ELK1 transcriptional activity)” value is “exon 28 deletion performed the worst in Ras assays as it retained the least function”.
